{
  "source": "patent US20260256741A1",
  "about": "“ANTICANCER MALEIMIDE DERIVATIVES FOR USE WITH IMMUNE CHECKPOINT BLOCKADE” (BROWN UNIVERSITY, priority 2022, published 2026)",
  "molecules": {"B1": {"name": "IFN-γ: Recombinant Human IFN-γ (Peprotech) used to treat tumor cells for western blot (protein, UniProt P01579 24-161, looked up)", "Interferon gamma": "QDPYVKEAENLKKYFNAGHSDVADNGTLFLGILKNWKEESDRKIMQSQIVSFYFKLFKNFKDDQSIQKSVETIKEDMNVKFFNSNKKKRDDFEKLTNYSVTDLNVQRKAIHELIQVMAELSPAAKTGKRKRSQMLFRG"}},
  "key": {"HCT-116 CRC cells": {"test_system": "HCT-116 CRC cells", "test": "Western blot analysis of HCT-116 CRC cells", "assay_type": "cell-based, human", "details": "250 ng/mL IFN-γ", "protocol": "(§1) Recombinant Human TNF-α (Cat #300-01A, PeproTech, Rocky Hill, NJ, USA) and Recombinant Human IFN-γ (Cat #300-02, Peprotech, Rocky Hill, NJ, USA) were purchased for use in western blot analysis while rhTRAIL was generated in-house. Kim et al., J Biol Chem., 279(38):40044-52 (2004).\n(§2) Cells were plated in a 6-well plate and incubated overnight before the spent media was replaced with drugged media. Drug treatment lasted for indicated durations. Protein was extracted using radioimmunoprecipitation (RIPA) assay buffer (Cat #R0278, Sigma-Aldrich, St. Louis, MO) containing cOmplete™, Mini, EDTA-free Protease Inhibitor Cocktail (Cat #4693159001, Roche, Basel, Switzerland) from sub-confluent cells. Denaturing sample buffer was added, samples were boiled at 95 degrees for 10 minutes, and an equal amount of protein lysate was electrophoresed through NuPAGE™ 4 to 12%, Bis-Tris, 1.5 mm, Mini Protein Gels (Invitrogen, Waltham, MA) then transferred to PVDF membranes. The PVDF membrane was blocked with 5% non-fat milk (Sigma-Aldrich, St. Louis, MO) in 1×TTBS. Primary antibodies were incubated with the transferred PVDF membrane in blocking buffer at 4° C. overnight. Secondary antibodies used included Goat anti-Rabbit IgG (H+L) Secondary Antibody, HRP (Cat #31460, Invitrogen, Waltham, MA), and Goat anti-Mouse IgG (H+L) Secondary Antibody, HRP (Cat #31430, Invitrogen, Waltham, MA). Signal was detected using Pierce™ ECL Western Blotting Substrate (Cat #32106, Thermo Scientific, Waltham, MA, USA) and a Syngene Imaging System (RRID: SCR_015770)."}, "HT-29 CRC cells": {"test_system": "HT-29 CRC cells", "test": "Western blot analysis of HT-29 CRC cells", "assay_type": "cell-based, human", "details": "250 ng/mL IFN-γ", "protocol": "as §1, §2"}},
  "data": [
    {"molecule": "B1", "values": [
      {"measurement": "gasdermin B expression", "setting": "HCT-116 CRC cells", "value": "increase in gasdermin B expression"},
      {"measurement": "gasdermin B expression", "setting": "HT-29 CRC cells", "value": "increase in gasdermin B expression"}
    ]}
  ]
}
